B1: Cell division control protein 45 homolog (Homo sapiens), O75419 (parent)
chain: MFVSDFRKEFYEVVQSQRVLLFVASDVDALCACKILQALFQCDHVQYTLVPVSGWQELETAFLEHKEQFHYFILINCGANVDLLDILQPDEDTIFFVCDTHRPVNVVNVYNDTQIKLLIKQDDDLEVPAYEDIFRDEEEDEEHSGNDSDGSEPSEKRTRLEEEIVEQTMRRRQRREWEARRRDILFDYEQYEYHGTSSAMVMFELAWMLSKDLNDMLWWAIVGLTDQWVQDKITQMKYVTDVGVLQRHVSRHNHRNEDEENTLSVDCTRISFEYDLRLVLYQHWSLHDSLCNTSYTAARFKLWSVHGQKRLQEFLADMGLPLKQVKQKFQAMDISLKENLREMIEESANKFGMKDMRVQTFSIHFGFKHKFLASDVVFATMSLMESPEKDGSGTDHFIQALDSLSRSNLDKLYHGLELAKKQLRATQQTIASCLCTNLVISQGPFLYCSLMEGTPDVMLFSRPASLSLLSKHLLKSFVCSTKNRRCKLLPLVMAAPLSMEHGTVTVVGIPPETDSSDRKNFFGRAFEKAAESTSSRMLHNHFDLSVIELKAEDRSKFLDALISLLS
B2: Keratin, type II cytoskeletal 1 (Homo sapiens), P04264 (parent)
chain: MSRQFSSRSGYRSGGGFSSGSAGIINYQRRTTSSSTRRSGGGGGRFSSCGGGGGSFGAGGGFGSRSLVNLGGSKSISISVARGGGRGSGFGGGYGGGGFGGGGFGGGGFGGGGIGGGGFGGFGSGGGGFGGGGFGGGGYGGGYGPVCPPGGIQEVTINQSLLQPLNVEIDPEIQKVKSREREQIKSLNNQFASFIDKVRFLEQQNQVLQTKWELLQQVDTSTRTHNLEPYFESFINNLRRRVDQLKSDQSRLDSELKNMQDMVEDYRNKYEDEINKRTNAENEFVTIKKDVDGAYMTKVDLQAKLDNLQQEIDFLTALYQAELSQMQTQISETNVILSMDNNRSLDLDSIIAEVKAQYEDIAQKSKAEAESLYQSKYEELQITAGRHGDSVRNSKIEISELNRVIQRLRSEIDNVKKQISNLQQSISDAEQRGENALKDAKNKLNDLEDALQQAKEDLARLLRDYQELMNTKLALDLEIATYRTLLEGEESRMSGECAPNVSVSVSTSHTTISGGGSRGGGGGGYGSGGSSYGSGGGSYGSGGGGGGGRGSYGSGGSSYGSGGGSYGSGGGGGGHGSYGSGSSSGGYRGGSGGGGGGSSGGRGSGGGSSGGSIGGRGSSSGGVKSSGGSSSVKFVSTTYSGVTR
B3: Protein patched homolog 1 (Homo sapiens), Q13635 (parent)
chain: MASAGNAAEPQDRGGGGSGCIGAPGRPAGGGRRRRTGGLRRAAAPDRDYLHRPSYCDAAFALEQISKGKATGRKAPLWLRAKFQRLLFKLGCYIQKNCGKFLVVGLLIFGAFAVGLKAANLETNVEELWVEVGGRVSRELNYTRQKIGEEAMFNPQLMIQTPKEEGANVLTTEALLQHLDSALQASRVHVYMYNRQWKLEHLCYKSGELITETGYMDQIIEYLYPCLIITPLDCFWEGAKLQSGTAYLLGKPPLRWTNFDPLEFLEELKKINYQVDSWEEMLNKAEVGHGYMDRPCLNPADPDCPATAPNKNSTKPLDMALVLNGGCHGLSRKYMHWQEELIVGGTVKNSTGKLVSAHALQTMFQLMTPKQMYEHFKGYEYVSHINWNEDKAAAILEAWQRTYVEVVHQSVAQNSTQKVLSFTTTTLDDILKSFSDVSVIRVASGYLLMLAYACLTMLRWDCSKSQGAVGLAGVLLVALSVAAGLGLCSLIGISFNAATTQVLPFLALGVGVDDVFLLAHAFSETGQNKRIPFEDRTGECLKRTGASVALTSISNVTAFFMAALIPIPALRAFSLQAAVVVVFNFAMVLLIFPAILSMDLYRREDRRLDIFCCFTSPCVSRVIQVEPQAYTDTHDNTRYSPPPPYSSHSFAHETQITMQSTVQLRTEYDPHTHVYYTTAEPRSEISVQPVTVTQDTLSCQSPESTSSTRDLLSQFSDSSLHCLEPPCTKWTLSSFAEKHYAPFLLKPKAKVVVIFLFLGLLGVSLYGTTRVRDGLDLTDIVPRETREYDFIAAQFKYFSFYNMYIVTQKADYPNIQHLLYDLHRSFSNVKYVMLEENKQLPKMWLHYFRDWLQGLQDAFDSDWETGKIMPNNYKNGSDDGVLAYKLLVQTGSRDKPIDISQLTKQRLVDADGIINPSAFYIYLTAWVSNDPVAYAASQANIRPHRPEWVHDKADYMPETRLRIPAAEPIEYAQFPFYLNGLRDTSDFVEAIEKVRTICSNYTSLGLSSYPNGYPFLFWEQYIGLRHWLLLFISVVLACTFLVCAVFLLNPWTAGIIVMVLALMTVELFGMMGLIGIKLSAVPVVILIASVGIGVEFTVHVALAFLTAIGDKNRRAVLALEHMFAPVLDGAVSTLLGVLMLAGSEFDFIVRYFFAVLAILTILGVLNGLVLLPVLLSFFGPYPEVSPANGLNRLPTPSPEPPPSVVRFAMPPGHTHSGSDSSDSEYSSQTTVSGLSEELRHYEAQQGAGGPAHQVIVEATENPVFAHSTVVHPESRHHPPSNPRQQPHLDSGSLPPGRQGQQPRRDPPREGLWPPPYRPRRDAFEISTEGHSGPSNRARWGPRGARSHNPRNPASTAMGSSVPGYCQPITTVTASASVTVAVHPPPVPGPGRNPRGGLCPGYPETDHGLFEDPHVPFHVRCERRDSKVEVIELQDVECEERPRGSSSN
B4: Radial spoke head protein 4 homolog A (Homo sapiens), Q5TD94 (parent)
chain: MEDSTSPKQEKENQEELGETRRPWEGKTAASPQYSEPESSEPLEAKQGPETGRQSRSSRPWSPQSRAKTPLGGPAGPETSSPAPVSPREPSSSPSPLAPARQDLAAPPQSDRTTSVIPEAGTPYPDPLEQSSDKRESTPHHTSQSEGNTFQQSQQPKPHLCGRRDVSYNNAKQKELRFDVFQEEDSNSDYDLQQPAPGGSEVAPSMLEITIQNAKAYLLKTSSNSGFNLYDHLSNMLTKILNERPENAVDIFENISQDVKMAHFSKKFDALQNENELLPTYEIAEKQKALFLQGHLEGVDQELEDEIAENALPNVMESAFYFEQAGVGLGTDETYRIFLALKQLTDTHPIQRCRFWGKILGLEMNYIVAEVEFREGEDEEEVEEEDVAEERDNGESEAHEDEEDELPKSFYKAPQAIPKEESRTGANKYVYFVCNEPGRPWVKLPPVIPAQIVIARKIKKFFTGRLDAPIISYPPFPGNESNYLRAQIARISAGTHVSPLGFYQFGEEEGEEEEEAEGGRNSFEENPDFEGIQVIDLVESLSNWVHHVQHILSQGRCNWFNSIQKNEEEEEEEDEEKDDSDYIEQEVGLPLLTPISEDLEIQNIPPWTTRLSSNLIPQYAIAVLQSNLWPGAYAFSNGKKFENFYIGWGHKYSPDNYTPPVPPPVYQEYPSGPEITEMDDPSVEEEQAFRAAQEAVLLAAENEESEEDEDEEDDYD
B5: Tyrosine-protein phosphatase non-receptor type 22 (Homo sapiens), Q9Y2R2 (parent)
chain: MDQREILQKFLDEAQSKKITKEEFANEFLKLKRQSTKYKADKTYPTTVAEKPKNIKKNRYKDILPYDYSRVELSLITSDEDSSYINANFIKGVYGPKAYIATQGPLSTTLLDFWRMIWEYSVLIIVMACMEYEMGKKKCERYWAEPGEMQLEFGPFSVSCEAEKRKSDYIIRTLKVKFNSETRTIYQFHYKNWPDHDVPSSIDPILELIWDVRCYQEDDSVPICIHCSAGCGRTGVICAIDYTWMLLKDGIIPENFSVFSLIREMRTQRPSLVQTQEQYELVYNAVLELFKRQMDVIRDKHSGTESQAKHCIPEKNHTLQADSYSPNLPKSTTKAAKMMNQQRTKMEIKESSSFDFRTSEISAKEELVLHPAKSSTSFDFLELNYSFDKNADTTMKWQTKAFPIVGEPLQKHQSLDLGSLLFEGCSNSKPVNAAGRYFNSKVPITRTKSTPFELIQQRETKEVDSKENFSYLESQPHDSCFVEMQAQKVMHVSSAELNYSLPYDSKHQIRNASNVKHHDSSALGVYSYIPLVENPYFSSWPPSGTSSKMSLDLPEKQDGTVFPSSLLPTSSTSLFSYYNSHDSLSLNSPTNISSLLNQESAVLATAPRIDDEIPPPLPVRTPESFIVVEEAGEFSPNVPKSLSSAVKVKIGTSLEWGGTSEPKKFDDSVILRPSKSVKLRSPKSELHQDRSSPPPPLPERTLESFFLADEDCMQAQSIETYSTSYPDTMENSTSSKQTLKTPGKSFTRSKSLKILRNMKKSICNSCPPNKPAESVQSNNSSSFLNFGFANRFSKPKGPRNPPPTWNI

Variants of: B1
Conditions: with ima3_human KPNA4, O00629
Chain of ima3_human KPNA4, O00629 (O00629 whole entry): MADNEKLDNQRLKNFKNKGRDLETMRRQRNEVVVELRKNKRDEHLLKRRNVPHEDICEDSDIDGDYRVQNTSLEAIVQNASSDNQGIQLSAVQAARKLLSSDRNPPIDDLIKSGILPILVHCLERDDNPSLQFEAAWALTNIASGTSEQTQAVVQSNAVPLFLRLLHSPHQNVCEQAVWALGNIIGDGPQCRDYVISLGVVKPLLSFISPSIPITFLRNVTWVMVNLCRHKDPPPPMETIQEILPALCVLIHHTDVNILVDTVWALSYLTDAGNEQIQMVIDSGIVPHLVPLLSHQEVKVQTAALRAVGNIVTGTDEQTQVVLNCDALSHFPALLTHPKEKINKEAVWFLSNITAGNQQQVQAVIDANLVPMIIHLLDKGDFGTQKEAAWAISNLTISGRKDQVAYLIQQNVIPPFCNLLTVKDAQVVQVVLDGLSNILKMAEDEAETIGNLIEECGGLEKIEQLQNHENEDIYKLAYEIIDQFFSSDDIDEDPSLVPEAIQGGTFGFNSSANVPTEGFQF

| Variant | effect of a mutation on the interaction |
| --- | --- |
| R157C | disrupting interaction strength |

Variants of: B1
Conditions: with ima8_human KPNA7, A9QM74
Chain of ima8_human KPNA7, A9QM74 (A9QM74 whole entry): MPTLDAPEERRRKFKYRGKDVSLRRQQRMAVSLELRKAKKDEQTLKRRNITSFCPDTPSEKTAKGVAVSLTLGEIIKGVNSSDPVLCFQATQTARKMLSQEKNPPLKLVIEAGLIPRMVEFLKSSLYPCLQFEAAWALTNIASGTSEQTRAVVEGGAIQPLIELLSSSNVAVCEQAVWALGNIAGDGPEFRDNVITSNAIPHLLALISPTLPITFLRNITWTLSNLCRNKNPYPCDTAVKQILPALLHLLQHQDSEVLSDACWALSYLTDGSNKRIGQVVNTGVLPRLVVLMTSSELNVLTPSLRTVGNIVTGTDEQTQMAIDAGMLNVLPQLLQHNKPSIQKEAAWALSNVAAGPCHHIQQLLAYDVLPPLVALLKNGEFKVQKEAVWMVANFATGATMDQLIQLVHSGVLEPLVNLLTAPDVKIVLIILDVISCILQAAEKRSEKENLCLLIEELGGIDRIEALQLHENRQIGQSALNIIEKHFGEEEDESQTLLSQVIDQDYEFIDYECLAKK

| Variant | effect of a mutation on the interaction |
| --- | --- |
| R157C | disrupting interaction strength |

Variants of: B1
Conditions: with ima3_human KPNA4, O00629
Remark: another data set of the same source

| Variant | effect of a mutation on the interaction |
| --- | --- |
| R157C | decreasing interaction strength |

Variants of: B2
Conditions: with mlp3a_human MAP1LC3A

| Variant | effect of a mutation on the interaction |
| --- | --- |
| L214P | disrupting interaction strength |

Variants of: B3
Conditions: with ppia_human PPIA

| Variant | effect of a mutation on the interaction |
| --- | --- |
| P1180Q | decreasing interaction strength |

Variants of: B4
Conditions: with nedd4_human NEDD4, P46934
Chain of nedd4_human NEDD4, P46934 (P46934 whole entry): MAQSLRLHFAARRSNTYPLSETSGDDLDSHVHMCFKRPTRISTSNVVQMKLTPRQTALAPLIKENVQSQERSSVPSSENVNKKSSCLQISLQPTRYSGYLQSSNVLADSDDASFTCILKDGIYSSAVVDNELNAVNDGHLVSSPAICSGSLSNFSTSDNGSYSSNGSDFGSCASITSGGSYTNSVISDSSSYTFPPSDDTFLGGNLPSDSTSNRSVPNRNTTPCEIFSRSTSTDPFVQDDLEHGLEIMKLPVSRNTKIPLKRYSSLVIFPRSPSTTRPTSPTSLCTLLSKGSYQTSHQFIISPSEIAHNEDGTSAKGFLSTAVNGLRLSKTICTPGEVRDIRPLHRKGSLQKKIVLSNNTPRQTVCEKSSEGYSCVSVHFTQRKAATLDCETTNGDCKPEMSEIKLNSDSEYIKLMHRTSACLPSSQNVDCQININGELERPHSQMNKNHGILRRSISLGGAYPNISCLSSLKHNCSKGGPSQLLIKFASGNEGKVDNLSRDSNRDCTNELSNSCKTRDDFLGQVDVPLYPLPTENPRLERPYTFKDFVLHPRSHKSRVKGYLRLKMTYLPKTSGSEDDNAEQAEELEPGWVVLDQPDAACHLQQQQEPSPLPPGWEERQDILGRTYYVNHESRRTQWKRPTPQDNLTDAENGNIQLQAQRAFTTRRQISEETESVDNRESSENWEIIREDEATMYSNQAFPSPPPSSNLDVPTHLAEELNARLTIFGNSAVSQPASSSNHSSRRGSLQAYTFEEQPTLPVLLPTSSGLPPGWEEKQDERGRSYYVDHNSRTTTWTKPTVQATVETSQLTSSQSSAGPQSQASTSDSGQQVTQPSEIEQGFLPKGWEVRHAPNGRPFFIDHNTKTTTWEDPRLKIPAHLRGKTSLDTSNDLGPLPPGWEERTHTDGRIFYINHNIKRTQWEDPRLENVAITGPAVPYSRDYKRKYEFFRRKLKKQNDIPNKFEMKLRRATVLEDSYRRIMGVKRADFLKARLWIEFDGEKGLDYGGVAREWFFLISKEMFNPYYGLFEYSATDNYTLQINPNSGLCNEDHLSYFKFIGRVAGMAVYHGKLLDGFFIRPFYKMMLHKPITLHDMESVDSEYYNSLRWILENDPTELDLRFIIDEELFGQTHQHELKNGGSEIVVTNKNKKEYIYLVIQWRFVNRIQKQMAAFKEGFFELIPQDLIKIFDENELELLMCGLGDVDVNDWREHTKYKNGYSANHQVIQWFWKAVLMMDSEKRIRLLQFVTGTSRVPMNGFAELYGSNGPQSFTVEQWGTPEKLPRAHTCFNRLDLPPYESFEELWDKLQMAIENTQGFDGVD

| Variant | effect of a mutation on the interaction |
| --- | --- |
| P664S | decreasing interaction strength |

Variants of: B5
Conditions: with itsn1_human ITSN1, Q15811
Chain of itsn1_human ITSN1, Q15811 (Q15811 whole entry): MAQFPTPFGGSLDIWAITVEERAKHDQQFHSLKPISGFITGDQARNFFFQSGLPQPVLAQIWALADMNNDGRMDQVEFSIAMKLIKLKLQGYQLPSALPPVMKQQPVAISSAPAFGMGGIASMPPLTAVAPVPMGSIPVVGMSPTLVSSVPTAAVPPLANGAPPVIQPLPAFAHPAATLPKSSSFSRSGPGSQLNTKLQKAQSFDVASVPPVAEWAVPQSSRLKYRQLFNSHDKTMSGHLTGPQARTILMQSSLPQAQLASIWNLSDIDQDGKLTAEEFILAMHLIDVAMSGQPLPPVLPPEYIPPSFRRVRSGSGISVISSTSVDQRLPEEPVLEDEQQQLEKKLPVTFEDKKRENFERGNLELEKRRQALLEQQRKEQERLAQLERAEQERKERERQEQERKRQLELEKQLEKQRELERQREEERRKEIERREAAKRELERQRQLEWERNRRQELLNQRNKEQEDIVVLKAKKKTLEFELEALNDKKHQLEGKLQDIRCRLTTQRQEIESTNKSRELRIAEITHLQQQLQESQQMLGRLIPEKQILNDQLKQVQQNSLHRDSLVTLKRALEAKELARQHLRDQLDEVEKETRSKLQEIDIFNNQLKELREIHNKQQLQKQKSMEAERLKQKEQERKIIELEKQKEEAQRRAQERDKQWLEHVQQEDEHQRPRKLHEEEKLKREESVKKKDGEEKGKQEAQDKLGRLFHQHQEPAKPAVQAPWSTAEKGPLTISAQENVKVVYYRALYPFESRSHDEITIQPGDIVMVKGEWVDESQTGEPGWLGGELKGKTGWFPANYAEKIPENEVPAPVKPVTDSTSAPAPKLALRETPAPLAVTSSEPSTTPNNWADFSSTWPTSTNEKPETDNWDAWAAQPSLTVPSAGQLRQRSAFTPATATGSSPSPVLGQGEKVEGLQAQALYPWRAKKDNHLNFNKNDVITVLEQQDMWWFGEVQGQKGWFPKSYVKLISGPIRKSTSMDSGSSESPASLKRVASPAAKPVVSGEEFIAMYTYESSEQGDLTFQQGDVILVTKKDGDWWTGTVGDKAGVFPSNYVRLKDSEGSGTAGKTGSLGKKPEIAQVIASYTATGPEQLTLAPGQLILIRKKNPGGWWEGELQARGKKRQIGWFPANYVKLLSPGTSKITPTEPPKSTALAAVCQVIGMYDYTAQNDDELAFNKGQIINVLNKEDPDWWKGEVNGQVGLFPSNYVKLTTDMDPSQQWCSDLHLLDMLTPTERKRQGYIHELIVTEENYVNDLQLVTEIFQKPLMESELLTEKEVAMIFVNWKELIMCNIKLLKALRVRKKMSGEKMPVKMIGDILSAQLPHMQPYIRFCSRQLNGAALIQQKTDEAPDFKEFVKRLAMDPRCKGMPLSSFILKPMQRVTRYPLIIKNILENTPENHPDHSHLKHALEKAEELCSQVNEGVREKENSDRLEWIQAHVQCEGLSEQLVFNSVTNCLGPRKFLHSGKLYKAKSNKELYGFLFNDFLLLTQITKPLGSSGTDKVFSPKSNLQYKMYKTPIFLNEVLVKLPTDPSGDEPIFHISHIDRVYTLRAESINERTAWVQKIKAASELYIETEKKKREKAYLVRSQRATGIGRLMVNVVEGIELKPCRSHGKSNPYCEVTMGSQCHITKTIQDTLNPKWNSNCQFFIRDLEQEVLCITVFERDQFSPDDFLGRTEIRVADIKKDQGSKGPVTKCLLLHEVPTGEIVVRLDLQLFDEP

| Variant | effect of a mutation on the interaction |
| --- | --- |
| R620W | decreasing interaction strength |
